In patent publication US20230265151A1, “GIP/GLP1 CO-AGONIST COMPOUNDS” (priority 2020, published 2023):
*1 amine or outer side, *2 acyl side, *3 side chain or, on linkers, in order; H or OH if unused. Where no end group is shown, it is not given here. Side-chain parts run from the residue outwards. [ ]: non-standard residue; d: D form. The star is where a group is joined. Decanoyl(10-(4-HOOC-PhO)) = O=C(O)c1ccc(OCCCCCCCCCC(=O)*)cc1; αMePhe(2-F) = C[C@](N)(Cc1ccccc1F)C(=O)O; γGlu = O=C(O)[C@H](CCC(=O)[*:2])N[*:1]; C14 diacid = O=C(O)CCCCCCCCCCCCC(=O)*; αMeY = C[C@](N)(Cc1ccc(O)cc1)C(=O)O; αMeL = CC(C)C[C@](C)(N)C(=O)O; Nle = CCCC[C@H](N)C(=O)O; Orn = NCCC[C@H](N)C(=O)O; AEEA = NCCOCCOCC(=O)O; Aib = CC(C)(N)C(=O)O

T1: human GIP receptor (human, UniProt P48546 22-466)
T1 sequence (looked up): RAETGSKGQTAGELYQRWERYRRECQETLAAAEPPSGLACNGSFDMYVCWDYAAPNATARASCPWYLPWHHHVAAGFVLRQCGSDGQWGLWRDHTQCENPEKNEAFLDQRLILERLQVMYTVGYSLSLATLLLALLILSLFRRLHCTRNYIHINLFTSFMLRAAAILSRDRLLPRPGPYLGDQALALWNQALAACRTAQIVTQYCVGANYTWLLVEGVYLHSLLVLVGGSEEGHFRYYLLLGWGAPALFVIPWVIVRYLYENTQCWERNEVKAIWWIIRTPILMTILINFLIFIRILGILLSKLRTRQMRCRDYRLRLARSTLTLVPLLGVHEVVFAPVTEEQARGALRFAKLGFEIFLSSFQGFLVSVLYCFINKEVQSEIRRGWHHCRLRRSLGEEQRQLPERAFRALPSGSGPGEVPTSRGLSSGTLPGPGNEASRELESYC

T2: human GIP receptor (human) (UniProt P48546)
T2 sequence (looked up): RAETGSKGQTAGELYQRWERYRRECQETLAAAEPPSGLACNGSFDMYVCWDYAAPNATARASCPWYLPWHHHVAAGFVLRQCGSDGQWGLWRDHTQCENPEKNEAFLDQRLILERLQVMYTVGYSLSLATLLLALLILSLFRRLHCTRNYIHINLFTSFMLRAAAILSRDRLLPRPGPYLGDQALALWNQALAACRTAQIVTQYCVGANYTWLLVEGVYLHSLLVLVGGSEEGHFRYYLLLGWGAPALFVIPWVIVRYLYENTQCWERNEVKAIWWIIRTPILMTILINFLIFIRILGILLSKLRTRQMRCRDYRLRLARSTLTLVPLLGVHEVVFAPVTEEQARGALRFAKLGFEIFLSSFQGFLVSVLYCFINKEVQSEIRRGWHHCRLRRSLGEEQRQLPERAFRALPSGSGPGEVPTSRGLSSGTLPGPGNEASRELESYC


Columns and labels:
Test in all cases: cell-based or functional assay
human glucagon receptor = human glucagon receptor (human, UniProt P47871 26-477)
human GIP receptor = target: T1, human GIP receptor
human GLP-1 receptor = human GLP-1 receptor (human, UniProt P43220 24-463)
hGLP-1R = hGLP-1R (Homo sapiens, UniProt P43220)
[1] = target: T2, human GIP receptor (human)
[2] = target: human glucagon receptor (human) (UniProt P47871)

| Binder | cAMP EC50 (1.0% HSA) (human glucagon receptor) [nM] | cAMP EC50 (1.0% HSA) (human GIP receptor) [nM] | cAMP Emax (1.0% HSA) (human GIP receptor) [%] | cAMP EC50 (1.0% HSA) (human GLP-1 receptor) [nM] | cAMP Emax (1.0% HSA) (human GLP-1 receptor) [%] | cAMP EC50 (hGLP-1R) [nM] | cAMP Emax (hGLP-1R) [%] | cAMP EC50 [1] [nM] | cAMP Emax [1] [%] | cAMP EC50 [2] [nM] |
| --- | --- | --- | --- | --- | --- | --- | --- | --- | --- | --- |
| YXEGTXTSDXSIXLDXKAQXKFIXXLIEGGPSSGAPPPS (Y-Aib-EGT-αMeF(2F)-TSD-hTyr-SI-αMeL-LD-Orn-K((2-[2-(2-Amino-ethoxy)-ethoxy]-acetyl)2-(y-Glu)-(10-(4-carboxyphenoxy)decanoyl))AQ-Aib-K((2-[2-(2-Amino-ethoxy)-ethoxy]-acetyl)2-(γ-Glu)-(10-(4-carboxyphenoxy)decanoyl))FI-(D-Glu)-αMeY-LIEGGPSSGAPPPS-NH2) [Example 320] | > 9950 | 0.338 | 84.1 | 6.22 |  |  |  |  |  |  |
| YXEGTXTSDYXIXLDXIAQXEFIKXLIKGGPSSGAPPPS (Y-Aib-EGT-αMeF(2F)-TSDY-Aib-I-αMeL-LD-Orn-IAQ-Aib-EFIK(2-[2-(2-Amino-ethoxy)-ethoxy]-acetyl)3-(γ-Glu)-(10-(4-carboxyphenoxy)decanoyl)-αMeY-LIK((2-[2-(2-Amino-ethoxy)-ethoxy]-acetyl)3-(γ-Glu)-(10-(4-carboxyphenoxy)decanoyl)GGPSSGAPPPS-NH2)) [Example 346] | > 9950 | 1.83 | 83.9 | 19 | 97.7 |  |  |  |  |  |
| YXEGTXTSDXSIXLDXKAQXEFIXXLIKGGPSSGAPPPS (Y-Aib-EGT-αMeF(2F)-TSD-hTyr-SI-αMeL-LD-Orn-K((2-[2-(2-Amino-ethoxy)-ethoxy]-acetyl)2-(γ-Glu)-CO-(CH2)10-CH3)AQ-Aib-EFI-(D-Glu)-αMeY-LIK((2-[2-(2-Amino-ethoxy)-ethoxy]-acetyl)2-(γ-Glu)-CO-(CH2)10-CH3)GGPSSGAPPPS-NH2) [Example 335] | > 9950 | 1.04 |  | 12.3 |  |  |  |  |  |  |
| YXEGTXTSDVXIXLDXKAQXKFIXXLIEGGPSSGAPPPS (Y-Aib-EGT-αMeF(2F)-TSDV-Aib-I-αMeL-LD-Orn-K((2-[2-(2-Amino-ethoxy)-ethoxy]-acetyl)2-(γ-Glu)-CO-(CH2)12-CO2H)AQ-Aib-K((2-[2-(2-Amino-ethoxy)-ethoxy]-acetyl)2-(γ-Glu)-CO-(CH2)12-CO2H)FI-(D-Glu)-αMeY-LIEGGPSSGAPPPS-NH2) [Example 318] | > 9950 | 5.42 |  | 28.7 |  | 0.219 | 99.9 | 0.0402 | 106 | > 9950 |
| YXEGTXTSDXSIXLDXKAQXKFIXXLIEGGPSSGAPPPS (Y-Aib-EGT-αMeF(2F)-TSD-hTyr-SI-αMeL-LD-Orn-K((2-[2-(2-Amino-ethoxy)-ethoxy]-acetyl)2-(γ-Glu)-CO-(CH2)10-CH3)AQ-Aib-K((2-[2-(2-Amino-ethoxy)-ethoxy]-acetyl)2-(γ-Glu)-CO-(CH2)10-CH3)FI-(D-Glu)-αMeY-LIEGGPSSGAPPPS-NH2) [Example 323] | > 9950 | 0.694 |  | 9.52 |  |  |  |  |  |  |
| YXEGTXTSDXSIXLDXKAQXKFIXXLIEGGPSSGAPPPS (Y-Aib-EGT-αMeF(2F)-TSD-Nle-SI-αMeL-LD-Orn-K((2-[2-(2-Amino-ethoxy)-ethoxy]-acetyl)2-(γ-Glu)-(10-(4-carboxyphenoxy)decanoyl))AQ-Aib-K((2-[2-(2-Amino-ethoxy)-ethoxy]-acetyl)2-(γ-Glu)-(10-(4-carboxyphenoxy)decanoyl))FI-(D-Glu)-αMeY-LIEGGPSSGAPPPS-NH2) [Example 321] | > 9950 | 0.631 |  | 13.9 |  |  |  |  |  |  |
| YXEGTXTSDKSIXLDXKAQXEXIXXLIEGGPSSGAPPPS (Y-Aib-EGT-αMeF(2F)-TSDK((2-[2-(2-Amino-ethoxy)-ethoxy]-acetyl)2-(γ-Glu)-CO-(CH2)10-CH3)SI-αMeL-LD-Orn-K((2-[2-(2-Amino-ethoxy)-ethoxy]-acetyl)2-(γ-Glu)-CO-(CH2)10-CH3)AQ-Aib-E-αMeF-I-(D-Glu)-αMeY-LIEGGPSSGAPPPS-NH2) [Example 293] | > 9950 | 0.987 | 96.6 | 10.7 | 99.4 | 0.102 | 102 | 0.00915 | 102 | > 9950 |
| YXEGTXTSDYXIXLDXKAQXEFIXXLIKGGPSSGAPPPS (Y-Aib-EGT-αMeF(2F)-TSDY-Aib-I-αMeL-LD-Orn-K((2-[2-(2-Amino-ethoxy)-ethoxy]-acetyl)2-(γ-Glu)-CO-(CH2)10-CH3)AQ-Aib-EFI-(D-Glu)-αMeY-LIK((2-[2-(2-Amino-ethoxy)-ethoxy]-acetyl)2-(γ-Glu)-CO-(CH2)10-CH3)GGPSSGAPPPS-NH2) [Example 301] | > 9950 | 0.919 | 85.5 | 12.9 |  | 0.175 | 99.2 | 0.0128 | 97.4 | > 9950 |
| YXEGTXTSDYXIXLDXKAQXEFIXXLIEGGPSSGAPPPSK (Y-Aib-EGT-αMeF(2F)-TSDY-Aib-I-αMeL-LD-Orn-K((2-[2-(2-Amino-ethoxy)-ethoxy]-acetyl)2-(γ-Glu)-CO-(CH2)10-CH3)AQ-Aib-EFI-(D-Glu)-αMeY-LIEGGPSSGAPPPSK((2-[2-(2-Amino-ethoxy)-ethoxy]-acetyl)2-(γ-Glu)-CO-(CH2)10-CH3)-NH2) [Example 302] | > 9950 | 0.453 |  | 6.55 | 99.4 | 0.0917 | 103 | 0.00916 | 100 | > 9950 |
| Y[Aib]EGT[αMePhe(2-F)]TSDV[Aib]I[αMeL]LD[Orn]IAQ[Aib][Orn]FIK([AEEA-AEEA-γGlu-C14 diacid])[αMeY]LIK([AEEA-AEEA-γGlu-C14 diacid])GGPSSGAPPPS-NH2 [Example 317] | > 9950 | 2.03 | 84.4 | 29.5 |  |  |  |  |  |  |
| Y[Aib]EGT[αMePhe(2-F)]TSD[Nle]SI[αMeL]LD[Orn]IAQ[Aib]K([AEEA-AEEA-γGlu-Decanoyl(10-(4-HOOC-PhO))])FI[dE][αMeY]LIK([AEEA-AEEA-γGlu-Decanoyl(10-(4-HOOC-PhO))])GGPSSGAPPPS-NH2 (N-terminus assumed; SMILES CCCC[C@H](NC(=O)[C@H](CC(=O)O)NC(=O)[C@H](CO)NC(=O)[C@@H](NC(=O)[C@](C)(Cc1ccccc1F)NC(=O)[C@@H](NC(=O)CNC(=O)[C@H](CCC(=O)O)NC(=O)C(C)(C)NC(=O)[C@@H](N)Cc1ccc(O)cc1)[C@@H](C)O)[C@@H](C)O)C(=O)N[C@@H](CO)C(=O)N[C@H](C(=O)N[C@@](C)(CC(C)C)C(=O)N[C@@H](CC(C)C)C(=O)N[C@@H](CC(=O)O)C(=O)N[C@@H](CCCN)C(=O)N[C@H](C(=O)N[C@@H](C)C(=O)N[C@@H](CCC(N)=O)C(=O)NC(C)(C)C(=O)N[C@@H](CCCCNC(=O)COCCOCCNC(=O)COCCOCCNC(=O)CC[C@H](NC(=O)CCCCCCCCCOc1ccc(C(=O)O)cc1)C(=O)O)C(=O)N[C@@H](Cc1ccccc1)C(=O)N[C@H](C(=O)N[C@H](CCC(=O)O)C(=O)N[C@@](C)(Cc1ccc(O)cc1)C(=O)N[C@@H](CC(C)C)C(=O)N[C@H](C(=O)N[C@@H](CCCCNC(=O)COCCOCCNC(=O)COCCOCCNC(=O)CC[C@H](NC(=O)CCCCCCCCCOc1ccc(C(=O)O)cc1)C(=O)O)C(=O)NCC(=O)NCC(=O)N1CCC[C@H]1C(=O)N[C@@H](CO)C(=O)N[C@@H](CO)C(=O)NCC(=O)N[C@@H](C)C(=O)N1CCC[C@H]1C(=O)N1CCC[C@H]1C(=O)N1CCC[C@H]1C(=O)N[C@@H](CO)C(N)=O)[C@@H](C)CC)[C@@H](C)CC)[C@@H](C)CC)[C@@H](C)CC) [Example 333] | > 9950 | 6.74 |  | 70.4 |  |  |  |  |  |  |
| Y[Aib]EGT[αMePhe(2-F)]TSD[Nle]SI[αMeL]LD[Orn]IAQ[Aib]EFIK([AEEA-AEEA-γGlu-Decanoyl(10-(4-HOOC-PhO))])[αMeY]LIK([AEEA-AEEA-γGlu-Decanoyl(10-(4-HOOC-PhO))])GGPSSGAPPPS-NH2 [Example 314] | > 9950 | 3.51 |  | 38.6 |  |  |  |  |  |  |
